According to paper PMC3509953 (Journal of molecular biology, 2012):

B5: PRDC with the unpaired cysteine mutated to serine (C120S), bacterially produced (natural protein, mouse, UniProt O88273 22-168, looked up)
chain: RKNRPAGAIPSPYKDGSSNNSERWHHQIKEVLASSQEALVVTERKYLKSDWCKTQPLRQTVSEEGCRSRTILNRFCYGQCNSFYIPRHVKKEEDSFQSSAFCKPQRVTSVIVELECPGLDPPFRIKKIQKVKHCRCMSVNLSDSDKQ

Key:
[1] = target: the molecule itself; experiment: MALDI-TOF mass spectrometry
cross-linking = target: the molecule itself; experiment: cross-linking
SEC = target: the molecule itself; experiment: SEC
[2] = target: B5; experiment: SPR
AUC = target: the molecule itself; experiment: AUC

B1: activin A (ligand, UniProt P08476 311-426, looked up)
chain: GLECDGKVNICCKKQFFVSFKDIGWNDWIIAPSGYHANYCEGECPSHIAGTSGSSLSFHSTVINHYRMRGHSPFANLKSCCVPTKLRPMSMLYYDDGQNIIKKDIQNMIVEECGCS
- stoichiometry N [1]: 2

B2: DAN (differential screening selected gene abberative in neuroblastoma) (natural protein, human)
chain: AAPPPINKLALFPDKSAWCEAKNITQIVGHSGCEAKSIQNRACLGQCFSYSVPNTFPQSTESLVHCDSCMPAQSMWEIVTLECPGHEEVPRVDKLVEKILHCSCQACGKEPSHEGLSVYVQGEDGPGSQPGTHPHPHPHPHPGGQTPEPEDPPGAPHTEEEGAEDLEVLFQ
- stoichiometry N (cross-linking): 2

B3: Protein related to DAN and Cerberus (PRDC), wild type, bacterially produced (natural protein, mouse, UniProt O88273 22-168, looked up)
chain: RKNRPAGAIPSPYKDGSSNNSERWHHQIKEVLASSQEALVVTERKYLKSDWCKTQPLRQTVSEEGCRSRTILNRFCYGQCNSFYIPRHVKKEEDSFQSCAFCKPQRVTSVIVELECPGLDPPFRIKKIQKVKHCRCMSVNLSDSDKQ
modifications: a single glutathione (by mass spectrometry; residue not stated)
- stoichiometry N (SEC): 2

B4: BMP7 (ligand, UniProt P18075 293-431, looked up)
chain: STGSKQRSQNRSKTPKNQEALRMANVAENSSSDQRQACKKHELYVSFRDLGWQDWIIAPEGYAAYYCEGECAFPLNSYMNATNHAIVQTLVHFINPETVPKPCCAPTQLNAISVLYFDDSSNVILKKYRNMVVRACGCH
- Kd [2]: 86.6 ± 3.7 nM

Binder: B5
- stoichiometry N (AUC): 2

B6: BMP2 (ligand, UniProt P12643 283-396, looked up)
chain: QAKHKQRKRLKSSCKRHPLYVDFSDVGWNDWIVAPPGYHAFYCHGECPFPLADHLNSTNHAIVQTLVNSVNSKIPKACCVPTELSAISMLYLDENEKVVLKNYQDMVVEGCGCR
- Kd [2]: 57.1 ± 7.8 nM

B7: BMP4 (ligand, UniProt P12644 293-408, looked up)
chain: SPKHHSQRARKKNKNCRRHSLYVDFSDVGWNDWIVAPPGYQAFYCHGDCPFPLADHLNSTNHAIVQTLVNSVNSSIPKACCVPTELSAISMLYLDEYDKVVLKNYQEMVVEGCGCR
- Kd [2]: 70.7 ± 2.6 nM
